B1: AtBOR1 M363Y (natural protein)
chain: not shown
notes: BOR1 borate transporter of Arabidopsis thaliana with the point mutation M363Y, made on the AtBOR1 WT gene; Expressed from pDDGFP-2 with a TEV-cleavable C-terminal yEGFP His-tag; tag removed with TEV protease before SEC; source: S. cerevisiae FGY217, purified in DDM (His-Trap, TEV cleavage, reverse IMAC, Superdex 200); not shown: yEGFP, C-terminal, cleaved; His-tag, C-terminal, cleaved
B2: Arabidopsis thaliana boron transporter 1 (AtBOR1), wild-type (natural protein)
chain: not shown
notes: BOR1 borate transporter of Arabidopsis thaliana (SLC4 family), full-length wild type; Expressed from pDDGFP-2 with a TEV-cleavable C-terminal yEGFP His-tag; also called WT AtBOR1; AtBOR1 WT; source: S. cerevisiae FGY217, purified in DDM (His-Trap, TEV cleavage, reverse IMAC, Superdex 200); not shown: yEGFP, C-terminal, cleaved; His-tag, C-terminal, cleaved
B3: AtBOR1 M363F (natural protein)
chain: not shown
notes: BOR1 borate transporter of Arabidopsis thaliana with the point mutation M363F, made on the AtBOR1 WT gene; Expressed from pDDGFP-2 with a TEV-cleavable C-terminal yEGFP His-tag; tag removed with TEV protease before SEC; source: S. cerevisiae FGY217, purified in DDM (His-Trap, TEV cleavage, reverse IMAC, Superdex 200); not shown: yEGFP, C-terminal, cleaved; His-tag, C-terminal, cleaved

Molecular target: the molecule itself
Assay: SDS/PAGE of SEC fractions, bands identified by mass spectrometry; protein purified in 0.03% DDM, eluted from Superdex 200 10/300 in 20 mM Tris/HCl pH 7.5, 150 mM NaCl; fractions on a 12% Tris-Glycine SDS/PAGE gel; monomer and dimer bands

Binding result, binds:
B1, B2, B3
